From US20130089516
Residue numbers refer to the chain shown, from its start.

What was measured:
[1] = biological target: T1, mIL-2/MMP1cs/4x linker/mIL-2Rα + 6His (UniProt P04351)
T1 sequence: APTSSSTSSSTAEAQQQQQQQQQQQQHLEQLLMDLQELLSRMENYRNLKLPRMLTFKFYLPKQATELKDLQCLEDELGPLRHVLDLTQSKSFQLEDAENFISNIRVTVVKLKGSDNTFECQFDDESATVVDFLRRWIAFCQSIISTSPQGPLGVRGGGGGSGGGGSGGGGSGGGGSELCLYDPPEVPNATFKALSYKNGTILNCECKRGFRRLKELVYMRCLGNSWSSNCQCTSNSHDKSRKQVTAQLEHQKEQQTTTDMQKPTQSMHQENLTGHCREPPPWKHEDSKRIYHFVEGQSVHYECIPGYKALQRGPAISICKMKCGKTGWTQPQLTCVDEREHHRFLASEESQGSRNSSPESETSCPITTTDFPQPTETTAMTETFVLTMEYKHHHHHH

[2] = biological target: T2, mIL-2/MMP2cs/4x linker/mIL-2Rα + 6His (UniProt P04351)
T2 sequence: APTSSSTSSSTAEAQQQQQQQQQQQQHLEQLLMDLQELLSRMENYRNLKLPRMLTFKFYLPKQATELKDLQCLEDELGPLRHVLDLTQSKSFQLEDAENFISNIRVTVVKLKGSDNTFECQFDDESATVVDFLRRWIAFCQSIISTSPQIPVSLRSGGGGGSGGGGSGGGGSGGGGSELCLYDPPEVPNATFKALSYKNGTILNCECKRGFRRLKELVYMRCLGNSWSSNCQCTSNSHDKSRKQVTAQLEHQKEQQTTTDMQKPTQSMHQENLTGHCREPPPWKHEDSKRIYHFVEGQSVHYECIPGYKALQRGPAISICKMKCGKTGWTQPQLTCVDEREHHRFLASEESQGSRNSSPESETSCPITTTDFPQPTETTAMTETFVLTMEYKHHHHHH

[3] = biological target: T3, mIL-2/MMP3-2cs/4x linker/mIL-2Rα + 6His (UniProt P04351)
T3 sequence: T2 sequence with I150V, V152L, R155Y

[4] = biological target: T4, mIL-2/MMP4-1cs/4x linker/mIL-2Rα + 6His (UniProt P04351)
T4 sequence: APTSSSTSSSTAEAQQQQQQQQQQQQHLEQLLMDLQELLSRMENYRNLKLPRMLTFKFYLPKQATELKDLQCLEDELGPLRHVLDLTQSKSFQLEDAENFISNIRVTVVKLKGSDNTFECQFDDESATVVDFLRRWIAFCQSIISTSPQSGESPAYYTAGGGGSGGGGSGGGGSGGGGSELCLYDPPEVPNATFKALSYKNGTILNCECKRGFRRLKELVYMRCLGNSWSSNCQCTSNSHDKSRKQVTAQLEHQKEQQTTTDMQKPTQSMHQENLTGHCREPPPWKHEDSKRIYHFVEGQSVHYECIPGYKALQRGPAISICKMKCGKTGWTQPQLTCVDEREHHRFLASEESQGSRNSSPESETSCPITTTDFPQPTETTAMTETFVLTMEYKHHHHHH

[5] = biological target: hIL-2/PSAcs/2x linker/scFv + 6His (UniProt P60568)
[6] = biological target: mIL-2/PSAcs/2x linker/mIL-2Rα (UniProt P04351)
[7] = biological target: mIL-2/PSAcs/4x linker/mIL-2Rα (UniProt P04351)
[8] = biological target: mouse IL-2/PSAcs/Mip-1α fusion protein (UniProt P04351)

Chain of matrix metalloproteinase 2 (MMP2), APMA-activated (R & D Systems) (P08253 110-660): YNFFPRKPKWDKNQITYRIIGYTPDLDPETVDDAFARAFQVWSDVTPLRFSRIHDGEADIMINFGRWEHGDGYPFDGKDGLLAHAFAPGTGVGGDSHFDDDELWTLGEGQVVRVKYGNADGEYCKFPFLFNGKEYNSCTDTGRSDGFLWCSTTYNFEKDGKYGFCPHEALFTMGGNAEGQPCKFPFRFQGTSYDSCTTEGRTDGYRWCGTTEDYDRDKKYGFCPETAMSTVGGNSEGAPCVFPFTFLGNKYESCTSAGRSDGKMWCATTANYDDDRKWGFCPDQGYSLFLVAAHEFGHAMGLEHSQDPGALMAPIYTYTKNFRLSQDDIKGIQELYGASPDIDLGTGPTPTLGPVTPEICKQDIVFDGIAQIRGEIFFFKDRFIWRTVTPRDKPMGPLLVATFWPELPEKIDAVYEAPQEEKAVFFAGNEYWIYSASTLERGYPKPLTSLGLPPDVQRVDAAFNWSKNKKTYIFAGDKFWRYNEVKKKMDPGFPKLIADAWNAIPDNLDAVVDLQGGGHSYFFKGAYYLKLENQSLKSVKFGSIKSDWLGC
Chain of hIL-2/PSAcs/2x linker/scFv + 6His (P60568 whole entry, looked up): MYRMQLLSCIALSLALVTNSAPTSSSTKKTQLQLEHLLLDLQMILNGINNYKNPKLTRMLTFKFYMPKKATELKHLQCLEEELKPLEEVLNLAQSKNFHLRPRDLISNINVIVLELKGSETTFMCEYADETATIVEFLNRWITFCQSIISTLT

Q: Which results are given for “matrix metalloproteinase 2 (MMP2), APMA-activated (R & D Systems)”?
A: cleavage by activated MMP2, immunoblot [1]: These cleavage sites were also capable of being cleaved using activated MMP2 and MMP9; cleavage by activated MMP2, immunoblot [2]: These cleavage sites were also capable of being cleaved using activated MMP2 and MMP9; cleavage by activated MMP2, immunoblot [3]: These cleavage sites were also capable of being cleaved using activated MMP2 and MMP9; cleavage by MMP2, anti-IL-2 immunoblot [4]: the fusion protein can be cleaved by MMP2 or MMP9

Q: “matrix metalloproteinase 9 (MMP9), APMA-activated (R & D Systems)” was tested. Which “cleavage by activated MMP9, immunoblot” value [1] did it give?
A: These cleavage sites were also capable of being cleaved using activated MMP2 and MMP9

Q: What about the “cleavage by activated MMP9, immunoblot” value [2] of the same substance?
A: These cleavage sites were also capable of being cleaved using activated MMP2 and MMP9

Q: What about the “cleavage by activated MMP9, immunoblot” value [3] of the same substance?
A: These cleavage sites were also capable of being cleaved using activated MMP2 and MMP9

Q: What about the “cleavage by MMP9, anti-IL-2 immunoblot” value [4] of the same substance?
A: the fusion protein can be cleaved by MMP2 or MMP9

Q: “prostate specific antigen (PSA), purified (Cortex Biochem)” was tested. Which “cleavage by PSA, anti-human IL-2 immunoblot” value [5] did it give?
A: the human IL-2/PSAcs/human scFv-2 fusion protein can be cleaved by PSA

Q: And the “cleavage by PSA, anti-IL-2 immunoblot” value [6]?
A: Immunoblot analyses revealed that the fusion proteins could be cleaved by PSA

Q: And the “cleavage by PSA, anti-IL-2 immunoblot” value [7]?
A: Immunoblot analyses revealed that the fusion proteins could be cleaved by PSA

Q: What about the “cleavage by PSA, anti-IL-2 immunoblot” value [8] of the same substance?
A: the IL-2/Mip1α fusion protein could be cleaved by PSA
